Source: article PMC5159498 (2016)
Residue numbers refer to the chain shown, from its start. Names may count otherwise.

B1: IQGAP1 GRD1-RGCT wild type (aa 877-1558) (domain or fragment)
chain: DQSDQDFQEELDLMKMREEVITLIRSNQQLENDLNLMDIKIGLLVKNKITLQDVVSHSKKLTKKNKEQLSDMMMINKQKGGLKALSKEKREKLEAYQHLFYLLQTNPTYLAKLIFQMPQNKSTKFMDSVIFTLYNYASNQREEYLLLRLFKTALQEEIKSKVDQIQEIVTGNPTVIKMVVSFNRGARGQNALRQILAPVVKEIMDDKSLNIKTDPVDIYKSWVNQMESQTGEASKLPYDVTPEQALAHEEVKTRLDSSIRNMRAVTDKFLSAIVSSVDKIPYGMRFIAKVLKDSLHEKFPDAGEDELLKIIGNLLYYRYMNPAIVAPDAFDIIDLSAGGQLTTDQRRNLGSIAKMLQHAASNKMFLGDNAHLSIINEYLSQSYQKFRRFFQTACDVPELQDKFNVDEYSDLVTLTKPVIYISIGEIINTHTLLLDHQDAIAPEHNDPIHELLDDLGEVPTIESLIGESSGNLNDPNKEALAKTEVSLTLTNKFDVPGDENAEMDARTILLNTKRLIVDVIRFQPGETLTEILETPATSEQEAEHQRAMQRRAIRDAKTPDKMKKSKSVKEDSNLTLQEKKEKIQTGLKKLTELGTVDPKNKYQELINDIARDIRNQRRYRQRRKAELVKLQQTYAALNSKATFYGEQVDYYKSYIKTCLDNLASKGKVSKKPREMKGKKSKK
B2: IQGAP1 GRD1-CT (aa 863-1657) (domain or fragment)
chain: DPPMVVVRKFVHLLDQSDQDFQEELDLMKMREEVITLIRSNQQLENDLNLMDIKIGLLVKNKITLQDVVSHSKKLTKKNKEQLSDMMMINKQKGGLKALSKEKREKLEAYQHLFYLLQTNPTYLAKLIFQMPQNKSTKFMDSVIFTLYNYASNQREEYLLLRLFKTALQEEIKSKVDQIQEIVTGNPTVIKMVVSFNRGARGQNALRQILAPVVKEIMDDKSLNIKTDPVDIYKSWVNQMESQTGEASKLPYDVTPEQALAHEEVKTRLDSSIRNMRAVTDKFLSAIVSSVDKIPYGMRFIAKVLKDSLHEKFPDAGEDELLKIIGNLLYYRYMNPAIVAPDAFDIIDLSAGGQLTTDQRRNLGSIAKMLQHAASNKMFLGDNAHLSIINEYLSQSYQKFRRFFQTACDVPELQDKFNVDEYSDLVTLTKPVIYISIGEIINTHTLLLDHQDAIAPEHNDPIHELLDDLGEVPTIESLIGESSGNLNDPNKEALAKTEVSLTLTNKFDVPGDENAEMDARTILLNTKRLIVDVIRFQPGETLTEILETPATSEQEAEHQRAMQRRAIRDAKTPDKMKKSKSVKEDSNLTLQEKKEKIQTGLKKLTELGTVDPKNKYQELINDIARDIRNQRRYRQRRKAELVKLQQTYAALNSKATFYGEQVDYYKSYIKTCLDNLASKGKVSKKPREMKGKKSKKISLKYTAARLHEKGVLLEIEDLQVNQFKNVIFEISPTEEVGDFEVKAKFMGVQMETFMLHYQDLLQLQYEGVAVMKLFDRAKVNVNLLIFLLNKKFYGK
B3: IQGAP1 GRD1-RGCT S1441E (aa 877-1558) (domain or fragment)
chain: B1 chain with S565E
B4: CDC42 (aa 1-178) (domain or fragment)
chain: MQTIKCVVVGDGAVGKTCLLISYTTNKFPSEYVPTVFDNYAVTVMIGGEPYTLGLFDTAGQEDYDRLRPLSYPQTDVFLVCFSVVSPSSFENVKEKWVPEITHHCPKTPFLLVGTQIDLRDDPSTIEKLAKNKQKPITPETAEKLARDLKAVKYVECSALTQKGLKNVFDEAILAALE
B5: IQGAP1 GRD1-RGCT S1443E (aa 877-1558) (domain or fragment)
chain: B1 chain with S567E

Assays:
[1] = target: RAC1 (aa 1-179) (human, UniProt P63000 1-179); assay: mGppNHp-bound RAC1
[2] = target: B4; assay: mGppNHp-bound CDC42
[3] = target: CDC42 Q61L (human, UniProt P60953 1-178, Q61L); assay: tGppNHp-bound CDC42 Q61L
[4] = target: B3; assay: mGppNHp-bound CDC42
[5] = target: B5; assay: mGppNHp-bound CDC42

Sequence of CDC42 Q61L (P60953 1-178 Q61L): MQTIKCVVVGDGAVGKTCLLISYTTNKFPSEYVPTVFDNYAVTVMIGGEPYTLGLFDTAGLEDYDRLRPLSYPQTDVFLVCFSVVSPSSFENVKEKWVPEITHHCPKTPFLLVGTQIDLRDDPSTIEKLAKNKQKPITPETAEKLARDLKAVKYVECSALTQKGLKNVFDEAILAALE

Binder	koff [1]	koff [2]	koff [3]	koff [4]	koff [5]
B1	2.78 s⁻¹	2.23 s⁻¹			
B2	0.66 s⁻¹	0.39 s⁻¹	0.073 s⁻¹		
B3	2.71 s⁻¹				
B4				1.83 s⁻¹	2.32 s⁻¹
B5	2.82 s⁻¹				
